This passage reports protein stability index results from the supplement of paper PMC10567573.

To fix the notation:
B1: PTPRD (parent)
chain: FICQATGDPRPKIVWNKKGKKVSN
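Note: lentivirally expressed fusions sorted by FACS into six bins by GFP to DsRed ratio, PSI derived from sequencing read proportions per bin multiplied by bin number.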

In this data set the parent is B1. Nature of the data set: protein stability index of a GFP-peptide fusion (GPS, HEK-293T) (PSI 1-6); higher = more stable. Conditions: c terminus: a fixed tail appended.
FICQGTGDPRPKIVWNKKGKKVSN [A5G]: the protein stability index stood at 2.07.

As for FICQTTGDPRPKIVWNKKGKKVSN [A5T], the protein stability index worked out at 2.08.

For FICQMTGDPRPKIVWNKKGKKVSN [A5M], the protein stability index was determined as 2.02.

Take FICQKTGDPRPKIVWNKKGKKVSN [A5K]: the protein stability index amounted to 3.03.

In the case of FICQYTGDPRPKIVWNKKGKKVSN [A5Y], the protein stability index was determined as 2.25.

Turning to FICQETGDPRPKIVWNKKGKKVSN [A5E], the protein stability index was found to be 1.92.

For the variant FICQNTGDPRPKIVWNKKGKKVSN [A5N], the protein stability index amounted to 2.09.

On to FICQPTGDPRPKIVWNKKGKKVSN [A5P], for which the protein stability index was 2.04.

As for FICQSTGDPRPKIVWNKKGKKVSN [A5S], the protein stability index was 1.83.

Regarding FICQRTGDPRPKIVWNKKGKKVSN [A5R], the protein stability index is 2.24.

Regarding FICQDTGDPRPKIVWNKKGKKVSN [A5D], the protein stability index turned out to be 2.39.

For FICQFTGDPRPKIVWNKKGKKVSN [A5F], the protein stability index was 2.19.

On to FICQITGDPRPKIVWNKKGKKVSN [A5I], for which the protein stability index is 1.77.

Take FICQVTGDPRPKIVWNKKGKKVSN [A5V]: the protein stability index amounted to 2.26.

For FICQCTGDPRPKIVWNKKGKKVSN [A5C], the protein stability index came to 2.12.

Consider FICQHTGDPRPKIVWNKKGKKVSN [A5H], for which the protein stability index stood at 2.2.

For FICQQTGDPRPKIVWNKKGKKVSN [A5Q], the protein stability index was determined as 1.95.

Take FICQLTGDPRPKIVWNKKGKKVSN [A5L]: the protein stability index is 2.01.

On to FICQWTGDPRPKIVWNKKGKKVSN [A5W], for which the protein stability index was determined as 2.35.

As to FICCATGDPRPKIVWNKKGKKVSN [Q4C], the protein stability index came to 1.8.

FICSATGDPRPKIVWNKKGKKVSN [Q4S]: the protein stability index turned out to be 1.58.

Consider FICAATGDPRPKIVWNKKGKKVSN [Q4A], for which the protein stability index is 1.61.

As for FICIATGDPRPKIVWNKKGKKVSN [Q4I], the protein stability index was determined as 1.84.

In the case of FICFATGDPRPKIVWNKKGKKVSN [Q4F], the protein stability index is 2.25.

As for FICMATGDPRPKIVWNKKGKKVSN [Q4M], the protein stability index is 1.29.

On to FICEATGDPRPKIVWNKKGKKVSN [Q4E], for which the protein stability index worked out at 2.18.

In the case of FICRATGDPRPKIVWNKKGKKVSN [Q4R], the protein stability index is 1.56.

In the case of FICDATGDPRPKIVWNKKGKKVSN [Q4D], the protein stability index is 1.87.

On to FICVATGDPRPKIVWNKKGKKVSN [Q4V], for which the protein stability index worked out at 2.08.

Regarding FICKATGDPRPKIVWNKKGKKVSN [Q4K], the protein stability index was 2.42.

Turning to FICLATGDPRPKIVWNKKGKKVSN [Q4L], the protein stability index was found to be 2.17.

In the case of FICGATGDPRPKIVWNKKGKKVSN [Q4G], the protein stability index came out at 1.88.

For the variant FICNATGDPRPKIVWNKKGKKVSN [Q4N], the protein stability index was found to be 2.03.

FICHATGDPRPKIVWNKKGKKVSN [Q4H]: the protein stability index is 2.33.

Turning to FICTATGDPRPKIVWNKKGKKVSN [Q4T], the protein stability index was 3.05.

With FICPATGDPRPKIVWNKKGKKVSN [Q4P], the protein stability index amounted to 2.14.

Take FICWATGDPRPKIVWNKKGKKVSN [Q4W]: the protein stability index was found to be 2.95.

Take FICYATGDPRPKIVWNKKGKKVSN [Q4Y]: the protein stability index stood at 1.37.

For FIRQATGDPRPKIVWNKKGKKVSN [C3R], the protein stability index turned out to be 2.06.

FIWQATGDPRPKIVWNKKGKKVSN [C3W]: the protein stability index was 1.97.

Turning to FIEQATGDPRPKIVWNKKGKKVSN [C3E], the protein stability index turned out to be 3.04.

Turning to FIAQATGDPRPKIVWNKKGKKVSN [C3A], the protein stability index turned out to be 2.55.

In the case of FIDQATGDPRPKIVWNKKGKKVSN [C3D], the protein stability index turned out to be 2.85.

Regarding FINQATGDPRPKIVWNKKGKKVSN [C3N], the protein stability index is 1.88.

For the variant FIIQATGDPRPKIVWNKKGKKVSN [C3I], the protein stability index stood at 2.38.

For the variant FIGQATGDPRPKIVWNKKGKKVSN [C3G], the protein stability index was determined as 2.2.

For the variant FIKQATGDPRPKIVWNKKGKKVSN [C3K], the protein stability index stood at 2.57.

For FIYQATGDPRPKIVWNKKGKKVSN [C3Y], the protein stability index was found to be 1.15.

Regarding FIQQATGDPRPKIVWNKKGKKVSN [C3Q], the protein stability index was found to be 2.05.

As to FIPQATGDPRPKIVWNKKGKKVSN [C3P], the protein stability index was 3.54.

Consider FISQATGDPRPKIVWNKKGKKVSN [C3S], for which the protein stability index came out at 1.92.

Turning to FIFQATGDPRPKIVWNKKGKKVSN [C3F], the protein stability index was 1.92.

Consider FIHQATGDPRPKIVWNKKGKKVSN [C3H], for which the protein stability index was found to be 2.56.

Take FILQATGDPRPKIVWNKKGKKVSN [C3L]: the protein stability index amounted to 1.86.

Consider FIVQATGDPRPKIVWNKKGKKVSN [C3V], for which the protein stability index worked out at 2.31.

As to FIMQATGDPRPKIVWNKKGKKVSN [C3M], the protein stability index worked out at 1.75.

Regarding FITQATGDPRPKIVWNKKGKKVSN [C3T], the protein stability index amounted to 1.98.

FHCQATGDPRPKIVWNKKGKKVSN [I2H]: the protein stability index worked out at 1.55.

In the case of FMCQATGDPRPKIVWNKKGKKVSN [I2M], the protein stability index was determined as 3.44.

For the variant FPCQATGDPRPKIVWNKKGKKVSN [I2P], the protein stability index was 3.89.

Consider FLCQATGDPRPKIVWNKKGKKVSN [I2L], for which the protein stability index was 2.59.

In the case of FRCQATGDPRPKIVWNKKGKKVSN [I2R], the protein stability index was 3.57.

As to FYCQATGDPRPKIVWNKKGKKVSN [I2Y], the protein stability index amounted to 3.01.

On to FVCQATGDPRPKIVWNKKGKKVSN [I2V], for which the protein stability index is 2.34.

Regarding FGCQATGDPRPKIVWNKKGKKVSN [I2G], the protein stability index came out at 4.1.

As to FTCQATGDPRPKIVWNKKGKKVSN [I2T], the protein stability index was determined as 3.58.

Take FNCQATGDPRPKIVWNKKGKKVSN [I2N]: the protein stability index is 4.27.

As to FSCQATGDPRPKIVWNKKGKKVSN [I2S], the protein stability index came out at 3.75.

For the variant FACQATGDPRPKIVWNKKGKKVSN [I2A], the protein stability index came to 2.67.

Take FWCQATGDPRPKIVWNKKGKKVSN [I2W]: the protein stability index worked out at 2.95.

FFCQATGDPRPKIVWNKKGKKVSN [I2F]: the protein stability index turned out to be 3.85.

Turning to FCCQATGDPRPKIVWNKKGKKVSN [I2C], the protein stability index turned out to be 2.29.

As to FQCQATGDPRPKIVWNKKGKKVSN [I2Q], the protein stability index turned out to be 2.83.

Regarding FECQATGDPRPKIVWNKKGKKVSN [I2E], the protein stability index was found to be 4.52.

Take FKCQATGDPRPKIVWNKKGKKVSN [I2K]: the protein stability index is 3.47.

Turning to FDCQATGDPRPKIVWNKKGKKVSN [I2D], the protein stability index was 4.73.

Turning to TICQATGDPRPKIVWNKKGKKVSN [F1T], the protein stability index came out at 3.08.

For PICQATGDPRPKIVWNKKGKKVSN [F1P], the protein stability index was 3.76.

Take EICQATGDPRPKIVWNKKGKKVSN [F1E]: the protein stability index was 3.2.

Turning to RICQATGDPRPKIVWNKKGKKVSN [F1R], the protein stability index stood at 3.66.

VICQATGDPRPKIVWNKKGKKVSN [F1V]: the protein stability index worked out at 2.75.

Consider HICQATGDPRPKIVWNKKGKKVSN [F1H], for which the protein stability index worked out at 3.71.

Take DICQATGDPRPKIVWNKKGKKVSN [F1D]: the protein stability index came out at 3.65.

Regarding KICQATGDPRPKIVWNKKGKKVSN [F1K], the protein stability index is 3.12.

For the variant LICQATGDPRPKIVWNKKGKKVSN [F1L], the protein stability index came to 2.15.

For the variant YICQATGDPRPKIVWNKKGKKVSN [F1Y], the protein stability index is 2.26.

As to SICQATGDPRPKIVWNKKGKKVSN [F1S], the protein stability index stood at 3.3.

Turning to AICQATGDPRPKIVWNKKGKKVSN [F1A], the protein stability index turned out to be 3.28.

In the case of IICQATGDPRPKIVWNKKGKKVSN [F1I], the protein stability index was 2.35.

As to NICQATGDPRPKIVWNKKGKKVSN [F1N], the protein stability index came out at 3.89.

For CICQATGDPRPKIVWNKKGKKVSN [F1C], the protein stability index was determined as 3.2.

With WICQATGDPRPKIVWNKKGKKVSN [F1W], the protein stability index is 2.23.

On to QICQATGDPRPKIVWNKKGKKVSN [F1Q], for which the protein stability index was 3.42.

As to MICQATGDPRPKIVWNKKGKKVSN [F1M], the protein stability index was found to be 2.92.
